Experimental data published in patent US20210301011A1, “COMPOSITION FOR PROPHYLAXIS OR TREATMENT OF IL-8 RELATED DISEASES” (CHUGAI SEIYAKU KABUSHIKI KAISHA, priority 2016, published 2021).
Values belong to the molecule of their own block, whether it stands above or below them.

Tests used:
neutrophil migration = conditions: clinical trials against cystic fibrosis; cited from earlier work
[1] = tested on: pulmonary function (FEV1); conditions: clinical trials for COPD patients; worsened in the placebo group; cited from earlier work
[2] = commercially available antibodies, known values; cited from earlier work
human FcγRIIIa = target: T1, human FcγRIIIa (Homo sapiens, UniProt P08637); test: Binding to soluble FcγR (BIACORE T200); conditions: 20° C., HBS-EP+
T1 construct: the soluble forms of FcγRIa and FcγRIIIa in human and cynomolgus monkey; His tag; made in house
T1 sequence (P08637 17-208 limits assumed): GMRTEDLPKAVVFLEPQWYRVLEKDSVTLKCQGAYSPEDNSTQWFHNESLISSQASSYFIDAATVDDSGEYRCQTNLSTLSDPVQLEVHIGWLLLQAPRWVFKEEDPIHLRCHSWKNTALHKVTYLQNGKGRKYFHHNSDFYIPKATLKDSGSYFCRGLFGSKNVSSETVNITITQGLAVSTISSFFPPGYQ
Description: (§1) Soluble FcγRIa and FcγRIIIa in both human and cynomolgus monkey were produced in the form of His-tagged molecules by methods known to those of ordinary skill in the art. […] Next, soluble FcγRIa or FcγRIIIa was injected with a running buffer (used as a reference solution), and was made to interact with the antibodies captured onto the sensor chip. HBS-EP+(GE Healthcare) was used as the running buffer, and HBS-EP+ was also used to dilute the soluble FcγRIa or FcγRIIIa. […] All measurements were carried out at 20° C.

human FcγRIa = target: T2, human FcγRIa (Homo sapiens, UniProt P12314); test: Binding to soluble FcγR (BIACORE T200); conditions: 20° C., HBS-EP+
T2 construct: the soluble forms of FcγRIa and FcγRIIIa in human and cynomolgus monkey; His tag; made in house
T2 sequence (P12314 16-292 limits assumed): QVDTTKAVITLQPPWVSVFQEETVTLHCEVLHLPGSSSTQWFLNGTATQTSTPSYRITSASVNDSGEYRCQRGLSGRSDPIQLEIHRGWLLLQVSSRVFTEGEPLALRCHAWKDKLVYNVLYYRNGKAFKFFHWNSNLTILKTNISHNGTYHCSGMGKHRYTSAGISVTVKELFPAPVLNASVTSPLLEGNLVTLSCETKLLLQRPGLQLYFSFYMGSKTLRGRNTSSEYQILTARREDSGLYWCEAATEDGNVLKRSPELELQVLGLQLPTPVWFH
Description: as §1

cynomolgus monkey FcγRIa = test: Binding to soluble FcγR (BIACORE T200); conditions: 20° C., HBS-EP+
Description: as §1

[3] = target: T3, cynomolgus monkey FcγRIIIa (Macaca fascicularis, UniProt Q8SPW2); test: Binding to soluble FcγR (BIACORE T200); conditions: 20° C., HBS-EP+
T3 construct: the soluble forms of FcγRIa and FcγRIIIa in human and cynomolgus monkey; His tag; made in house
T3 sequence (Q8SPW2 17-208 limits assumed): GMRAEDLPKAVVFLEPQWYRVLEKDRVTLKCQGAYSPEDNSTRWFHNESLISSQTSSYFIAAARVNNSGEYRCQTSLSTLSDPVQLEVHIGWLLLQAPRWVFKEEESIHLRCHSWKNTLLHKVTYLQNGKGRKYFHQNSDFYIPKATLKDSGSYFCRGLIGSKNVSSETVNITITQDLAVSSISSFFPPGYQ
Description: as §1

Molecule: O=C(Nc1ccc(Cl)c(S(=O)(=O)N2CCNCC2)c1O)Nc1cccc(F)c1Cl [Elubrixin]
topical neutrophil migration (neutrophil migration): Topical neutrophil migration was observed to be suppressed

Molecule: CC[C@@H](Nc1c(Nc2cccc(C(=O)N(C)C)c2O)c(=O)c1=O)c1ccc(C)o1 [MK7123]
pulmonary function (FEV1) [1]: pulmonary function (FEV1) was improved in the active drug group

Molecule: Campath: commercially available antibody
frequency of ADA development in humans [2]: 45%

Molecule: Zenapax: commercially available antibody
frequency of ADA development in humans [2]: 14%

binding to soluble human FcγRIIIa (human FcγRIIIa): bind to all FcγRs
binding to soluble human FcγRIa (human FcγRIa): bind to all FcγRs
binding to soluble cynomolgus monkey FcγRIa (cynomolgus monkey FcγRIa): bind to all FcγRs
binding to soluble cynomolgus monkey FcγRIIIa [3]: bind to all FcγRs
B1: H1009/L395-F1886m: variable region of H1009/L395 with Fc variant F1886m (antibody)
heavy: QVQLVESGGGLVQPGGSLRLSCAASGFTFSDYYLSWVRQAPGKGLEWVGLIRNKDNYHTPEYSASVKGRFTISRDDSKNSLYLTMSDLKTEDTAVYYCARENHRYDVELAYWGQGTLVTVSSASTKGPSVFPLAPSSKSTSGGTAALGCLVKDYFPEPVTVSWNSGALTSGVHTFPAVLQSSGLYSLSSVVTVPSSSLGTQTYICNVNHKPSNTKVDKKVEPKSCDKTHTCPPCPAPELLGGPSVFLFPPKPKDTLMISRTPEVTCVVVDVSHEDPEVKFNWYVDGVEVHNAKTKPREEQYNSTYRVVSVLTVLHQDWLNGKEYKCKVSNKALPAPIEKTISKAKGQPREPQVYTLPPSREEMTKNQVSLTCLVKGFYPSDIAVEWESNGQPENNYKTTPPVLDSDGSFFLYSKLTVDKSRWQQGNVFSCSVLHEALHAHTTRKELSLSP
light: DIQMTQSPSSLSASVGDRVTITCRASEIIYSYLAWYQQKPGKAPKLLIYKAKTHADGVPSRFSGSGSGTDFTFTISSLQPEDIATYYCKHHFGFPRTFGQGTKVEIKRTVAAPSVFIFPPSDEQLKSGTASVVCLLNNFYPREAKVQWKVDNALQSGNSQESVTEQDSKDSTYSLSSTLTLSKADYEKHKVYACEVTHQGLSSPVTKSFNRGEC
